Experimental data from patent US20230331852A1 (OSE IMMUNOTHERAPEUTICS, published 2023).
Numbering of substitutions follows the chain as printed.

B1: murine anti-hCLEC1 antibody 11H11-G11 (antibody, V domains shown)
VH: QIHLVQSGPELKKPGETVKISCKASGYTFTNFGMNWVKQAPGKGLKWMGWINTNTGEPTYADDFKGRFAFSLETSASTAYLQINNLKNEDTATYFCARGAPAWFTYWGQGTLVTVSA
VL: DIQMTQSPASLSASVGETVTITCRATENIYSYLAWYQQKQGKSPQFLVYNAKTLAEGMPSRFSGSGSGTQFSLKINILQPEDFGTYYCQHHFGTPLTFGAGTKLELK
notes: Mouse hybridoma antibody
B2: murine anti-hCLEC1 antibody 10F4-H2 (antibody, V domains shown)
VH: QVQLQQSGTELARPGASVKMSCKASGYIFTDYTIHWVKQRPGQGLEWVGYINPSSGYTNYNQKFKAKATLTADKSSSTAYMQLSSLTSEDSAVYYCTPMFRRSYFDYWGQGTTLTVSS
VL: DAVMTQTPLSLPVSLGDQASISCRSSQSLENSNGNTYLNWYLQKPGQSPQLLIYRVSNRFSGVLDRFSGSGSGTDFTLKISRVEAEDLGVYFCLQVTHVPYTFGGGTKLEIK
notes: Mouse hybridoma antibody
B3: murine anti-hCLEC1 antibody 15E3-G3 (antibody, V domains shown)
VH: QVQLQQSGPELVKPGASVKMSCKASGFTFTDYVIAWVKVRTGQGLEWIGEIYPGSGSIYYNEKFKGKATLTADKSSNTAYMQLSSLTSEDSAVYFCASSTVVAFDYWGQGTTLTVSS
VL: EIVLTQSPTTLAASPGEKIIITCSDSSSISSNYLHWYQQKPGFSPKLLIYGTSNLASGVPARFSGSGSGTTYSLTIGTMEAEDVATYYCQQGSSIPRTFGGGTKLEIK
notes: Mouse hybridoma antibody
B4: murine anti-hCLEC1 antibody 14H9-F3 (antibody, V domains shown)
VH: QVQLKESGPGLVAPSQSLSITCTISGFSLTTYGIHWVRQPPGKGLEWLVVIWSDGSTIYNSALKSRLSISKDNSKSQVFLKMNSLQTDDTAIYYCARHGGYYNYFDYWGQGTTLTVSS
VL: DIQMNQSPSSLSASLGDTITITCHASQNINVWLSWYQQKPGNIPKLLIYKASNLHTGVPSRFSGSGSGTTFTLTIDSLQPEDIATYYCQQGQSYWTFGGGTKLEIK
notes: Mouse hybridoma antibody
B5: murine anti-hCLEC1 antibody 5D1-A5 (antibody, V domains shown)
VH: B4 VH with T31S, I34V, I92M
VL: B4 VL with T70G, D76S
notes: Mouse hybridoma antibody
B6: murine anti-hCLEC1 antibody 6C5-A4 (antibody, V domains shown)
VH: QVQLQQSGPELVKPGASVKMSCKASGYTFTDYVISWVKQKTGQGLEWIGEIYPGSGNTYYNEKFKGKATLTADKSSSTAYIHLSSLTSEDSAVYFCAGGGSSHFDYWGQGTTLTVSS
VL: not shown
notes: Mouse hybridoma antibody
B7: murine anti-hCLEC1 antibody 21B1-E10 (antibody, V domains shown)
VH: B4 VH
VL: DIVMSQSPSSLAVSVGEKVTLTCKSTQNLFYSTNQKNYLAWYQQKPGQSPKLLIYWASTRESGVPDRFTGSGSGTDFTLTISSVKAEDPAVYYCQQYYTYPWTFGGGTKLEIK
notes: tied to the 21B1 variable domains by name

molecular target: T1, human CLEC-1A expressed on the cell membrane (human, UniProt Q8NC01 1-280); experiment: flow cytometry on U266 cells; printed as ED50, read-out Mean
T1 construct: Endogenous on human U266 myeloma cells, on monocyte-derived TGFb-DC and macrophages; on CHO cells after transduction with a Clec-1 expressing lentivirus; also called U266 CLEC1; CLEC-1A on U266 cells
T1 sequence: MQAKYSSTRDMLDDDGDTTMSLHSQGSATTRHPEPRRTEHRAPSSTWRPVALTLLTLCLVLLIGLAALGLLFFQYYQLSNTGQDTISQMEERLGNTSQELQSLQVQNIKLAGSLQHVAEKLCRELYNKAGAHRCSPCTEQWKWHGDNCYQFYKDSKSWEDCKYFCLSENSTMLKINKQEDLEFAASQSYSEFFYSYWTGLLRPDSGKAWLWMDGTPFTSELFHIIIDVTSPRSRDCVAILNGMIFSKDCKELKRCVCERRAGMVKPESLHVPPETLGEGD

Binder | EC50 [µg/mL]
B1 | 0.033
B2 | 0.22
B3 | 0.59
B4 | 0.072
B5 | 0.12
B6 | 0.17

molecular target: T1, human CLEC-1A expressed on the cell …; experiment: flow cytometry on U266 cells; printed as ED50, read-out % + cells

Binder | EC50 [µg/mL]
B1 | 0.0077
B2 | 0.034
B3 | 0.074
B4 | 0.0065
B5 | 0.0064
B6 | 0.051

molecular target: T2, recombinant human CLEC-1 protein with His Tag (#1704-CL R&D Systems) (human, UniProt Q8NC01 74-280); experiment: BLI (Blitz), CLEC1-His on Ni-NTA biosensor, antibody at 20 ug/mL; murine clone, FIG. 16
T2 construct: Bought protein; also called His-CLEC1; His Clec-1; not shown: His tag
T2 sequence: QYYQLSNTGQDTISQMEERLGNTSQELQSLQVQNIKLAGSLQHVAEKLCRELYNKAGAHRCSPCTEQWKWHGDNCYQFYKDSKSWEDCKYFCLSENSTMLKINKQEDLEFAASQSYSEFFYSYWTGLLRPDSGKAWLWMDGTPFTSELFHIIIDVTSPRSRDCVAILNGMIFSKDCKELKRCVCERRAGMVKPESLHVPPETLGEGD
Protocol: (§1) Analysis was performed with a BLItz System (Fortébio, #C22-2 No 61010-1, Molecular Devices, San José, USA).
(§2) The affinity of the anti-hCLEC1 antibodies, was measured with Blitz system (Forté Bio, C22-2 No 61010-1).

Binder | Kd [nM]
B1 | ~1
B7 | ~1

molecular target: T2, recombinant human CLEC-1 protein with …; experiment: ELISA on immobilised human His-CLEC1 (column hm His Clec); given as ED50
Protocol: Method: The binding activity of the anti-hCLEC1 antibodies was assessed by ELISA (Enzyme-linked immunosorbent assay). […] A second ELISA assays was performed, like above, with immobilization of CLEC1-Fc (OSE Immunotherapeutics) at 2 μg/ml. A third ELISA assays was performed to see the cross-reactivity with mouse CLEC1. Like above, ELISA was made with immobilization of mouse Fc-CLEC1 (OSE Immunotherapeutics) at 2 μg/ml in carbonate buffer instead of His-Clec. Purified antibodies were added at different concentrations to measure binding. […] Control antibody is a commercial anti-CLEC-1A antibody.

Binder | EC50 [µg/mL]
B1 | 0.00748
B2 | 0.0128
B3 | 0.0466
B4 | 0.157
B5 | 1.31
B6 | 0.012

molecular target: T2, recombinant human CLEC-1 protein with …; experiment: Blitz biolayer interferometry, His-CLEC1 on Ni-NTA biosensor, antibody at 20 ug/mL
Protocol: as §1, §2

Binder | Kd [nM] | koff [s⁻¹] | kon [M⁻¹ s⁻¹]
B1 | 2.91 | 0.000787 | 270000
B2 | 5.72 | 0.000621 | 109000
B3 | 14 | 0.00101 | 72200
B4 | 8.24 | 0.00074 | 89800
B5 | 16.1 | 0.00124 | 76600
B6 | 14.7 | 0.000934 | 63400

Molecular target: T3, Fc-CLEC1 labelled with Alexa Fluor 488 (human, Alexa Fluor 488 label (sites not given))
T3 construct: also called Fc-CLEC1-A488; Alexa488-Fc-Clec-1
T3 chain: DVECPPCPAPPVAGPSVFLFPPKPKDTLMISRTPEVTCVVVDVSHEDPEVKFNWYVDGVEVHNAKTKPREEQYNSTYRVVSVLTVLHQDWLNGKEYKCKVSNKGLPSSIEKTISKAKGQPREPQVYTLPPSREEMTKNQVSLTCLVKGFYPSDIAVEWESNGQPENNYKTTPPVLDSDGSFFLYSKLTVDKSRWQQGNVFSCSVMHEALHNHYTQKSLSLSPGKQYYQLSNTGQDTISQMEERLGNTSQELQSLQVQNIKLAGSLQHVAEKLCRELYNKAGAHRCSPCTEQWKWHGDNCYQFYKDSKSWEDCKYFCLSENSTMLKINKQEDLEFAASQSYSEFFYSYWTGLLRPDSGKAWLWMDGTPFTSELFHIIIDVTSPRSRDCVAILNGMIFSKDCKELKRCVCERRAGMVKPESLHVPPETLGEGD
Experiment: FACS competition: blocks Fc-CLEC1-A488 (10 nM) binding to CLEC-1 ligand on UV-treated PBMC; read-out Mean
Protocol: (§3) Methods. To measure competition on permeabilised Raji (CytoFix/cytoperm kit, BD Biosciences) which expressed CLEC1 ligand, Fc-CLEC1-labelled A488 which bound specifically to permeabilised Raji was used. To measure competition, Fc-CLEC1 labelled A488 at 10 nM or 20 nM was mixed with mouse anti-hCLEC1 at different concentrations for 15 min at RT then added on these cells for 30 min at 4° C. […] To measure competition on PMBC, we used human PBMC pre-treated by UV for 18 h to obtain apoptotic PBMC, which expressed CLEC1 ligand. Fc-CLEC1-labelled A488 bound specifically apoptotic UV-treated PBMC. To measure competition, Fc-CLEC1 labelled A488 at 10 nM was mixed with mouse anti-hCLEC1 at different concentrations for 15 min at RT then added on these cells for 30 min at 4° C.

Binder | IC50 [µg/mL]
B1 | 2.7
B2 | 2.8
B3 | 4.5
B4 | 3.1
B5 | 3.8
B6 | 2.2

Molecular target: T3, Fc-CLEC1 labelled with Alexa Fluor 488
Experiment: FACS competition: blocks Fc-CLEC1-A488 (10 nM) binding to CLEC-1 ligand on UV-treated PBMC; read-out % + cells
Protocol: as §3

Binder | IC50 [µg/mL]
B1 | 0.36
B2 | 0.79
B3 | 0.69
B4 | 0.031
B5 | 0.13
B6 | 2

Molecular target: T3, Fc-CLEC1 labelled with Alexa Fluor 488
Experiment: FACS competition: blocks Fc-CLEC1-A488 (10 nM) binding to CLEC-1 ligand on permeabilised Raji cells; read-out Mean
Protocol: as §3

Binder | IC50 [µg/mL]
B1 | 1.5
B2 | 2.1
B3 | 1.3
B4 | 0.84
B5 | 4.4
B6 | 1.7

Molecular target: T3, Fc-CLEC1 labelled with Alexa Fluor 488
Experiment: FACS competition: blocks Fc-CLEC1-A488 (20 nM) binding to CLEC-1 ligand on permeabilised Raji cells; read-out Mean
Protocol: as §3

Binder | IC50 [µg/mL]
B1 | 0.72
B2 | 2.5
B3 | 3
B4 | 2.5
B5 | 3.1
B6 | 1.7

Molecular target: T3, Fc-CLEC1 labelled with Alexa Fluor 488
Experiment: FACS competition: blocks Fc-CLEC1-A488 (10 nM) binding to CLEC-1 ligand on permeabilised Raji cells; read-out % + cells
Protocol: as §3

Binder | IC50 [µg/mL]
B1 | 8
B2 | 11
B3 | 7.7
B4 | 3.2
B5 | 12
B6 | 19

Molecular target: T3, Fc-CLEC1 labelled with Alexa Fluor 488
Experiment: FACS competition: blocks Fc-CLEC1-A488 (20 nM) binding to CLEC-1 ligand on permeabilised Raji cells; read-out % + cells
Protocol: as §3

Binder | IC50 [µg/mL]
B1 | 0.7
B2 | 0.82
B3 | 14
B4 | 22
B5 | 0.21
B6 | 1.5
